Measured values as given in the supplement of paper PMC10567573.

B1: LCOR (parent)
chain: PCAGSTSLSHSPGCSSTQGNGRPG

Variants of: B1
Experiment: protein stability index of a GFP-peptide fusion (GPS, HEK-293T) (PSI 1-6); higher = more stable
Conditions: c terminus: a fixed tail appended
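Note: lentivirally expressed fusions sorted by FACS into six bins by GFP to DsRed ratio, PSI derived from sequencing read proportions per bin multiplied by bin number.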

Protein stability index of substitutions, site by site:
G4: L 2.43, P 4.17, E 4.2, F 1.98, I 2.28, M 2.92, H 3.52, S 3.56, T 3.71, R 4.25
H10: D 4.89, R 3.41, E 5.05, Q 4.94, Y 4.3, I 3.89, A 4.02, L 4.39, C 2.72, T 4.4
C14: F 4.71, T 4.93, L 4.34, V 4.85, K 5.01, P 4.48, E 4.9, Q 5.14, Y 3.83, A 4.12, R 3.86, S 5.88, H 4.93, G 5.25
S5: N 2.67, W 3.35, I 1.61, G 4.2, D 4.27, E 3.94, R 2.71, T 1.75, K 4.35, P 2.15
S9: G 2.85, P 3.79, M 3.48, W 2.66, D 4.12, Y 1.89, Q 3.48, K 3.62, E 3.85, F 2.4
R22: I 3.97, Y 4.14, G 3.06, M 3.78, T 3.46, N 4.2, A 4.1, F 3.37, P 3.83, H 3.96, E 4.55, C 3.92, D 4.3, W 2.55, K 4.23
S16: D 4.05, E 3.18, G 3.74, Q 3.03, I 2.07, F 2.87, K 3.37, N 3.53, M 2.22, L 1.6, A 3
S15: Q 2.79, D 4.31, L 3.36, W 2.85, K 2.39, G 2.49, V 3.3, M 2.95, Y 2.92
T17: K 3.44, Y 2.28, S 2.53, F 1.81, C 1.47, M 2.17, V 1.75, P 3.51, E 3.47, H 3.36, A 3.08, I 2.02
Q18: M 3.01, G 3.53, P 2.89, V 2.5, Y 2.75, F 2.27, T 3.37, E 3.34, K 3.77, R 3.01, I 2.48, C 2.73
G21: W 2.34, S 2.81, T 2.1, R 3.29, F 1.98, Q 3.36, K 3.79, C 2.85, A 3.63, E 3.96, Y 2.92, H 2.31, P 2.53, D 3.95, N 3.57
S11: D 4, A 2.63, N 2.75, P 3.16, K 2.81, R 2.53, M 3.28, E 3.73, Q 3.27, H 3.3, F 3.1, G 2.96, V 2.86
G19: F 3.15, E 3.8, K 3.48, R 2.32, T 3.24, A 3.65, M 2.88, H 2.32, P 3.31, Y 2.5, S 3.84, I 2.9, N 2.94, V 3.19, Q 3.64
G13: K 3.39, Y 2.53, Q 2.56, H 3.46, C 1.44, D 3.23, N 3.61, F 2.93, T 2.72, M 2.56, R 3.6
